{"source": "paper PMC4341239", "about": "“High yield purification of full-length functional hERG K^+ channels produced in Saccharomyces cerevisiae” (Microbial Cell Factories, 2015)", "proteins": {"B1": {"name": "hERG-TEV-GFP-His 8 fusion protein (full-length hERG alpha-subunit, Kv11.1) (natural protein, human, UniProt Q12809 1-1159, looked up)", "chain": "MPVRRGHVAPQNTFLDTIIRKFEGQSRKFIIANARVENCAVIYCNDGFCELCGYSRAEVMQRPCTCDFLHGPRTQRRAAAQIAQALLGAEERKVEIAFYRKDGSCFLCLVDVVPVKNEDGAVIMFILNFEVVMEKDMVGSPAHDTNHRGPPTSWLAPGRAKTFRLKLPALLALTARESSVRSGGAGGAGAPGAVVVDVDLTPAAPSSESLALDEVTAMDNHVAGLGPAEERRALVGPGSPPRSAPGQLPSPRAHSLNPDASGSSCSLARTRSRESCASVRRASSADDIEAMRAGVLPPPPRHASTGAMHPLRSGLLNSTSDSDLVRYRTISKIPQITLNFVDLKGDPFLASPTSDREIIAPKIKERTHNVTEKVTQVLSLGADVLPEYKLQAPRIHRWTILHYSPFKAVWDWLILLLVIYTAVFTPYSAAFLLKETEEGPPATECGYACQPLAVVDLIVDIMFIVDILINFRTTYVNANEEVVSHPGRIAVHYFKGWFLIDMVAAIPFDLLIFGSGSEELIGLLKTARLLRLVRVARKLDRYSEYGAAVLFLLMCTFALIAHWLACIWYAIGNMEQPHMDSRIGWLHNLGDQIGKPYNSSGLGGPSIKDKYVTALYFTFSSLTSVGFGNVSPNTNSEKIFSICVMLIGSLMYASIFGNVSAIIQRLYSGTARYHTQMLRVREFIRFHQIPNPLRQRLEEYFQHAWSYTNGIDMNAVLKGFPECLQADICLHLNRSLLQHCKPFRGATKGCLRALAMKFKTTHAPPGDTLVHAGDLLTALYFISRGSIEILRGDVVVAILGKNDIFGEPLNLYARPGKSNGDVRALTYCDLHKIHRDDLLEVLDMYPEFSDHFWSSLEITFNLRDTNMIPGSPGSTELEGGFSRQRKRKLSFRRRTDKDTEQPGEVSALGPGRAGAGPSSRGRPGGPWGESPSSGPSSPESSEDEGPGRSSSPLRLVPFSSPRPPGEPPGGEPLMEDCEKSSDTCNPLSGAFSGVSNIFSFWGDSRGRQYQELPRCPAPTPSLLNIPLSSPGRRPRGDVESRLDALQRQLNRLETRLSADMATVLQLLQRQMTLVPPAYSAVTTPGPGPTSTSPLLPVSPLPTLTLDSLSQVSQFMACEELPPGAPELPQEGPTRRLSLPGQLGALTSQPLHRHGSDPGS", "modifications": "N-glycosylated in S. cerevisiae", "notes": "the fusion is 156 kDa; also called hERG-GFP-His 8; hERG-GFP; source: S. cerevisiae strain PAP1500, induced at 15°C; crude membranes solubilized in FC-12 with cholesteryl-hemisuccinate; not shown: GFP (yEGFP, after a TEV cleavage site), C-terminal, kept; His8, C-terminal, kept"}}, "biological_target": "the molecule itself", "experiment": "SEC; fluorescence size exclusion chromatography (FSEC) on Superose 6 10/300 GL; crude membranes solubilized in FC-12 with cholesteryl-hemisuccinate, with 1 uM Astemizole; FSEC buffer 20 mM TRIS-HCl, 0.15 M NaCl, 0.03% DDM; mass by MW standards, amount of detergent in the complex unknown"}
{"protein": "B1", "values": [{"measurement": "stoichiometry N", "result": 4}]}
